Measured values taken from PMC4232046.

Key:
[1] = molecular target: CBC (HapB/HapC/HapE core CCAAT-binding complex);HapX(24-158) (Aspergillus fumigatus;Aspergillus fumigatus) (UniProt Q4WER3); test: SPR; conditions: SPR Biacore T200, 25 C; 10 mM phosphate pH 7.4, 2.7 mM KCl, 137 mM NaCl, 1 mM DTT, 0.005% surfactant P20, 10 ug/ml poly(dI-dC); biotin-DNA on streptavidin CM3 …
[2] = tested on: CBC (HapB/HapC/HapE core CCAAT-binding complex) (Aspergillus fumigatus); test: SPR; conditions: SPR Biacore T200, 25 C; 10 mM phosphate pH 7.4, 2.7 mM KCl, 137 mM NaCl, 1 mM DTT, 0.005% surfactant P20, 10 ug/ml poly(dI-dC); biotin-DNA on streptavidin CM3 …
[3] = molecular target: Aspergillus fumigatus core CCAAT-binding complex (HapB(230–299), HapC(40–137), HapE(47–164)) (Aspergillus fumigatus); test: SPR; Biacore T200, 25°C; biotinylated 37-bp cccA promoter duplex (full motif) on streptavidin-coated CM3 chip; CBC injected, HapX(24–158) co-injected on preformed binary CBC/DNA complexes in the steady-state phase; 10 mM phosphate pH 7.4, 2.7 mM KCl, 137 mM NaCl, 1 mM DTT, 0.005% P20, 10 μg/ml poly(dI-dC); 1:1 model with mass transport term

AAATCCACCAATCAACGCCTCCGTGATTGTCAGCAAT (double strand) [cccAp-369-37]
Kd [1]: 1.97 nM
Kd [2]: 0.7 nM

Aspergillus fumigatus HapX(24–158) (from UniProt Q4WER3 24-158) (domain or fragment)
KD on CBC-coated DNA (preformed CBC/DNA complex, 37-bp cccA promoter duplex) [3]: 1.97 nM
stoichiometry N (HapX chains per CBC) [3]: 2
